Assay results taken from PMC6555819, “Comprehensive study of nuclear receptor DNA binding provides a revised framework for understanding receptor specificity”.

Legend:
PXR:RXRa = PXR:RXRa (Homo sapiens, UniProt O75469;P19793 full;full); experiment: no ligand; PBM; 270 nM : 90 nM RXRa; PBS pH 7.4, 2% milk, 0.02% Triton X-100, 1 mM DTT, BSA, 0.4 mg/ml salmon testes DNA; conditions: tags: His kept;His cleaved; copies: 1;1; label: surface-attached array probe
Outline: (§1)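 Random background probes are the reference for binding z-scores. These scores derive from regression-normalized fluorescence on custom Agilent 4×180K protein-binding microarrays incubated 1 h with ligand-free nuclear receptor dimers. Binding was detected with antibodies against each partner (one per run).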

THRa:RXRa = THRa:RXRa (Homo sapiens, UniProt P10827;P19793 full;full); experiment: no ligand; PBM; 90 nM : 90 nM RXRa; PBS pH 7.4, 2% milk, 0.02% Triton X-100, 1 mM DTT, BSA, 0.4 mg/ml salmon testes DNA; conditions: tags: His kept;His cleaved; copies: 1;1; label: surface-attached array probe
LXRb:RXRa = LXRb:RXRa (Homo sapiens, UniProt P55055;P19793 full;full); experiment: no ligand; PBM; 270 nM : 90 nM RXRa; PBS pH 7.4, 2% milk, 0.02% Triton X-100, 1 mM DTT, BSA, 0.4 mg/ml salmon testes DNA; conditions: tags: His kept;His cleaved; copies: 1;1; label: surface-attached array probe
Outline: as §1

LXRa:RXRa = LXRa:RXRa (Homo sapiens, UniProt Q13133;P19793 full;full); experiment: as above; conditions: tags: His kept;His cleaved; copies: 1;1; label: surface-attached array probe
Outline: as §1

RARg:RXRa = RARg:RXRa (Homo sapiens, UniProt P13631;P19793 full;full); experiment: as above; conditions: tags: His kept;His cleaved; copies: 1;1; label: surface-attached array probe
Outline: as §1

FXR:RXRa = FXR:RXRa (Homo sapiens, UniProt Q96RI1;P19793 full;full); experiment: as above; conditions: tags: His kept;His cleaved; copies: 1;1; label: surface-attached array probe
Outline: as §1

RARb:RXRa = RARb:RXRa (Homo sapiens, UniProt P10826;P19793 full;full); experiment: as above; conditions: tags: His kept;His cleaved; copies: 1;1; label: surface-attached array probe
Outline: as §1

PPARa:RXRa = PPARa:RXRa (Homo sapiens, UniProt Q07869;P19793 full;full); experiment: as above; conditions: tags: GST kept;His cleaved; copies: 1;1; label: surface-attached array probe
Outline: as §1

RXRa = RXRa (Homo sapiens, UniProt P19793); experiment: no ligand; PBM; 180 nM; PBS pH 7.4, 2% milk, 0.02% Triton X-100, 1 mM DTT, BSA, 0.4 mg/ml salmon testes DNA; conditions: tags: His cleaved; chain copies: 2; label: surface-attached array probe
Chain of RXRa (P19793 whole entry): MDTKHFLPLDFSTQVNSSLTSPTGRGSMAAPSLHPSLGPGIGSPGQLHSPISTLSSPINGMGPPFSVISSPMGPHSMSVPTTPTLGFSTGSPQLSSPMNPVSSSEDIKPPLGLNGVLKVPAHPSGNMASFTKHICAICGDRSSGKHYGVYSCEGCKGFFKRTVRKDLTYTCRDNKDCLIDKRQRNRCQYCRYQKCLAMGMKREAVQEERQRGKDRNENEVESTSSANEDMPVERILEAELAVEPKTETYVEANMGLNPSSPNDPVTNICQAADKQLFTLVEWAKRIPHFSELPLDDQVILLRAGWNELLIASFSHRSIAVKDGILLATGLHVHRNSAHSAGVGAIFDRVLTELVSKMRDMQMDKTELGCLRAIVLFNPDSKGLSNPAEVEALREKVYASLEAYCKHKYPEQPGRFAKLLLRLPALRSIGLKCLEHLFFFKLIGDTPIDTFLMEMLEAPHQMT

Chain of PPARa:RXRa (Q07869 whole entry, chain 1 of 2): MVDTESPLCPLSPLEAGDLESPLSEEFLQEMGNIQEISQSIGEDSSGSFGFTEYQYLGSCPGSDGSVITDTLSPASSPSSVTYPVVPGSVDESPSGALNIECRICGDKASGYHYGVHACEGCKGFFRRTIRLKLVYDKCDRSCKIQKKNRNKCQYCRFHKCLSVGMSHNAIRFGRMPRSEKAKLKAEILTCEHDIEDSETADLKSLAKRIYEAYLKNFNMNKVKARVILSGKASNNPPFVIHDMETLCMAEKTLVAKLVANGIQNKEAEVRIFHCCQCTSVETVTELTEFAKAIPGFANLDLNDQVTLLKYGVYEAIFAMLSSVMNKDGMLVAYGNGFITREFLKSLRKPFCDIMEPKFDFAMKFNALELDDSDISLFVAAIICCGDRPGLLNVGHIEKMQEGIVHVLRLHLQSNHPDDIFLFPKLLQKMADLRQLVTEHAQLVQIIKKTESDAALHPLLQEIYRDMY
Chain of PPARa:RXRa (P19793 whole entry, chain 2 of 2): as the sequence (P19793 whole entry) above
Chain of FXR:RXRa (Q96RI1 whole entry, chain 1 of 2): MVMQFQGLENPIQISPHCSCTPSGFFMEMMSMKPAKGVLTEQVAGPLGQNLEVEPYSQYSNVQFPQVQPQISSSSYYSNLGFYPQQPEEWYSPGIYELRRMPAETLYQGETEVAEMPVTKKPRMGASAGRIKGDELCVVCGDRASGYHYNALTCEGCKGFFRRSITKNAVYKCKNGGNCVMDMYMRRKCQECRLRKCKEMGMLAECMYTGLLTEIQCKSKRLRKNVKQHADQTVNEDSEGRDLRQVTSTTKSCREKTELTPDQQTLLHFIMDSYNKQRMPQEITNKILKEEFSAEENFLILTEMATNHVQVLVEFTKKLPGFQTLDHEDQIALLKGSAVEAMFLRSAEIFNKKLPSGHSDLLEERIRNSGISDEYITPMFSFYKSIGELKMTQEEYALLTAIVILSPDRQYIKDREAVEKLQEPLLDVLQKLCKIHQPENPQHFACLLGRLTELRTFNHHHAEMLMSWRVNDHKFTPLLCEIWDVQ
Chain of FXR:RXRa (P19793 whole entry, chain 2 of 2): as the sequence (P19793 whole entry) above
Chain of PXR:RXRa (O75469 whole entry, chain 1 of 2): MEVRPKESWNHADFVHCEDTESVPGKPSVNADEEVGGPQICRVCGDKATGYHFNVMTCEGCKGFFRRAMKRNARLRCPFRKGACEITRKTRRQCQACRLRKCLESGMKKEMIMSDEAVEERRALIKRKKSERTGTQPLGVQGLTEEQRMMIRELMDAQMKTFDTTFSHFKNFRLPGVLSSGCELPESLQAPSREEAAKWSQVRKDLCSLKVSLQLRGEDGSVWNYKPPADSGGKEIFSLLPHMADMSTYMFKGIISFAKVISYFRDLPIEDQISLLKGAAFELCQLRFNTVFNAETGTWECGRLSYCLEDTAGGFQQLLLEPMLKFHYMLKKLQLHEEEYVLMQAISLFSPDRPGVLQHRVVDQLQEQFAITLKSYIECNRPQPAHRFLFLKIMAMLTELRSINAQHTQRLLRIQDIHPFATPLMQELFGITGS
Chain of PXR:RXRa (P19793 whole entry, chain 2 of 2): as the sequence (P19793 whole entry) above
Chain of THRa:RXRa (P10827 other isoform, or with tags, fused parts or gaps, chain 1 of 2): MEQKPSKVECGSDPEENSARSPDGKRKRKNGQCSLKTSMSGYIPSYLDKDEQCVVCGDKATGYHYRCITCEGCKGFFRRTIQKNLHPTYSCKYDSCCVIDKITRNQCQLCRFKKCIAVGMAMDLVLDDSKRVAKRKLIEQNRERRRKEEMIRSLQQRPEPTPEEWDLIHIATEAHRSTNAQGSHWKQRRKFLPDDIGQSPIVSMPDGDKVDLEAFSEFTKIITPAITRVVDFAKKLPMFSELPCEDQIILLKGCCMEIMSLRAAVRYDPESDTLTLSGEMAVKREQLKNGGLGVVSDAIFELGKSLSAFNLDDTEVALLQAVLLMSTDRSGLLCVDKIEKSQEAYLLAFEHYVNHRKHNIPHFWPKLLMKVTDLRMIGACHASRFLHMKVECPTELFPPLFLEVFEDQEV
Chain of THRa:RXRa (P19793 whole entry, chain 2 of 2): as the sequence (P19793 whole entry) above
Chain of RARg:RXRa (P13631 whole entry, chain 1 of 2): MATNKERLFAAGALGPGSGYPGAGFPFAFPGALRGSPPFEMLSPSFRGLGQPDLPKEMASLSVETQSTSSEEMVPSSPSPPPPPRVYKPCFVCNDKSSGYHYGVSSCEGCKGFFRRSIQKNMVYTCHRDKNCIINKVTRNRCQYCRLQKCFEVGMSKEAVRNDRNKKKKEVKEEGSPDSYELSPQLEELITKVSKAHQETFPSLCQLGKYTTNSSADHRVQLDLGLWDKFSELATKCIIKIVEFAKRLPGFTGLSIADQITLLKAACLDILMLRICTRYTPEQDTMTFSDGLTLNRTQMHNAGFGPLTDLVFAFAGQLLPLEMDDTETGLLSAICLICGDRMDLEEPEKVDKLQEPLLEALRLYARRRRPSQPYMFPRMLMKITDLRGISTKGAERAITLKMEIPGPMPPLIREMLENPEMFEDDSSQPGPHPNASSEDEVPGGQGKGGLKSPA
Chain of RARg:RXRa (P19793 whole entry, chain 2 of 2): as the sequence (P19793 whole entry) above
Chain of LXRa:RXRa (Q13133 whole entry, chain 1 of 2): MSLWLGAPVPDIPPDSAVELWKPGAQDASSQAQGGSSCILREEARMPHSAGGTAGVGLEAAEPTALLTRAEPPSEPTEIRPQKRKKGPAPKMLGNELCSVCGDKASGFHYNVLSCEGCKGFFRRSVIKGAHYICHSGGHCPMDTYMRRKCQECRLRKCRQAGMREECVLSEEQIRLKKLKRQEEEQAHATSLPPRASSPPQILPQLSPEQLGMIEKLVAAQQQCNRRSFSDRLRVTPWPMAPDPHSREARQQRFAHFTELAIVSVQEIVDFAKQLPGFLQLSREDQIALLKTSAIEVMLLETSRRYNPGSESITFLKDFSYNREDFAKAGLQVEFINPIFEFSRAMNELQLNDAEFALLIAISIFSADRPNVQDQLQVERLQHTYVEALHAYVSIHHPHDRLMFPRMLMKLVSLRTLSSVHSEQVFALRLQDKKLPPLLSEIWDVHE
Chain of LXRa:RXRa (P19793 whole entry, chain 2 of 2): as the sequence (P19793 whole entry) above
Chain of LXRb:RXRa (P55055 whole entry, chain 1 of 2): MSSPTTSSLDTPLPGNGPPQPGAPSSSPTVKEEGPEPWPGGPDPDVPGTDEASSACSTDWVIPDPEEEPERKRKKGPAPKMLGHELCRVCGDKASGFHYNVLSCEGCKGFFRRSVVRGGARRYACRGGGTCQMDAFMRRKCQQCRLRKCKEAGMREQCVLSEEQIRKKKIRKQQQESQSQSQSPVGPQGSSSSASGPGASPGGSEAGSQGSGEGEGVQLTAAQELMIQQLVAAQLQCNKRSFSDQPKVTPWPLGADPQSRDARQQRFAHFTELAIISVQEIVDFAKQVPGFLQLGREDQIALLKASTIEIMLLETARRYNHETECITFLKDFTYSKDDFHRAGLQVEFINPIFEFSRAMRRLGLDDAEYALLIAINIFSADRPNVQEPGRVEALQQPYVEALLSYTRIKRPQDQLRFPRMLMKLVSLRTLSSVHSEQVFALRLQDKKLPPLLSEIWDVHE
Chain of LXRb:RXRa (P19793 whole entry, chain 2 of 2): as the sequence (P19793 whole entry) above
Chain of RARb:RXRa (P10826 whole entry, chain 1 of 2): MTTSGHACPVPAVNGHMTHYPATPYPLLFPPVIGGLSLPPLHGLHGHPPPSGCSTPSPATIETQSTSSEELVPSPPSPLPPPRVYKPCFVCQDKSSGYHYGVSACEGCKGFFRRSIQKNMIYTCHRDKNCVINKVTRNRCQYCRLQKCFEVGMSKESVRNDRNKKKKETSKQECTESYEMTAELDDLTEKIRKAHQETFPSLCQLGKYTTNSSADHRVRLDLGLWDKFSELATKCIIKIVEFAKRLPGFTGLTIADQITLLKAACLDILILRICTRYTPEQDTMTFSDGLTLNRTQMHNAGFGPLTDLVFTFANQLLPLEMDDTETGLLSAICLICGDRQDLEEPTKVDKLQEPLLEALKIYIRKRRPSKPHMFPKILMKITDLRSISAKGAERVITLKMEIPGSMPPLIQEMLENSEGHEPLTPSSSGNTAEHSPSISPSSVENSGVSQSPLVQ
Chain of RARb:RXRa (P19793 whole entry, chain 2 of 2): as the sequence (P19793 whole entry) above

Binder | binding signal (THRa:RXRa) | binding signal (LXRb:RXRa) | binding signal (LXRa:RXRa) | also measured
NRC3_random_hg19_109_o1 (dsDNA) DNA 1: GCTGGTGTTTCATCACTGTGGCAACTTCCCACCTGGGCGATTGACAGCGTAGAATGAAGG DNA 2: CCTTCATTCTACGCTGTCAATCGCCCAGGTGGGAAGTTGCCACAGTGATGAAACACCAGC | -0.41 PBM z-score against 500 random probes | – | – | binding signal (PXR:RXRa): -0.28 PBM z-score against 500 random probes
NRC3_random_hg19_180_o1 (dsDNA) DNA 1: GCCAAGATAACCAGCTTATCTATCAGTTGGAGCAGAGCGATTGACAGCGTAGAATGAAGG DNA 2: CCTTCATTCTACGCTGTCAATCGCTCTGCTCCAACTGATAGATAAGCTGGTTATCTTGGC | -0.68 PBM z-score against 500 random probes | -0.9 PBM z-score against 500 random probes | – | –
NRC3_wobSeed88_DR3_G11T_o1 (dsDNA) DNA 1: GCTAGCCTAGTTCATGCGGGCCAGTATAGTGTCGGCGCGATTGACAGCGTAGAATGAAGG DNA 2: CCTTCATTCTACGCTGTCAATCGCGCCGACACTATACTGGCCCGCATGAACTAGGCTAGC | 0.14 PBM z-score against 500 random probes | – | 0.09 PBM z-score against 500 random probes | binding signal (RARg:RXRa): 0.41 PBM z-score against 500 random probes
NRC3_wobSeed136_DR5_C24A_o1 (dsDNA) DNA 1: GCTAGCCTAGGTCATTCAGGGGCAAGTATAGAAAGCGCGATTGACAGCGTAGAATGAAGG DNA 2: CCTTCATTCTACGCTGTCAATCGCGCTTTCTATACTTGCCCCTGAATGACCTAGGCTAGC | 5.06 PBM z-score against 500 random probes | – | 6.65 PBM z-score against 500 random probes | binding signal (RARg:RXRa): 4.49 PBM z-score against 500 random probes
NRC3_wobSeed103_DR4_G23C_o1 (dsDNA) DNA 1: GCGCATATAGGTAATACAAGGTCAAAGTCCGATTGTGCGATTGACAGCGTAGAATGAAGG DNA 2: CCTTCATTCTACGCTGTCAATCGCACAATCGGACTTTGACCTTGTATTACCTATATGCGC | 4.92 PBM z-score against 500 random probes | – | 7 PBM z-score against 500 random probes | –
NRC3_wobSeed49_DR2_T8C_o1 (dsDNA) DNA 1: GCCAAACCAGGTCAAGAGGTCAAAGTCCGCTTCCCGGCGATTGACAGCGTAGAATGAAGG DNA 2: CCTTCATTCTACGCTGTCAATCGCCGGGAAGCGGACTTTGACCTCTTGACCTGGTTTGGC | 4.82 PBM z-score against 500 random probes | – | – | binding signal (PXR:RXRa): 6.81 PBM z-score against 500 random probes; binding signal (FXR:RXRa): 7.9 PBM z-score against 500 random probes
NRC3_wobSeed113_DR4_G15C_o1 (dsDNA) DNA 1: GCATATGTAGGTTACCTGGGGTCATTCAGACTAGGCGCGATTGACAGCGTAGAATGAAGG DNA 2: CCTTCATTCTACGCTGTCAATCGCGCCTAGTCTGAATGACCCCAGGTAACCTACATATGC | 5.46 PBM z-score against 500 random probes | 8.08 PBM z-score against 500 random probes | 8.75 PBM z-score against 500 random probes | –
NRC3_random_hg19_217_o1 (dsDNA) DNA 1: GCCTCAAACTCCCTTCTTCAGTTTCTGGTAGATCAAGCGATTGACAGCGTAGAATGAAGG DNA 2: CCTTCATTCTACGCTGTCAATCGCTTGATCTACCAGAAACTGAAGAAGGGAGTTTGAGGC | -0.02 PBM z-score against 500 random probes | – | 0.47 PBM z-score against 500 random probes | binding signal (RARb:RXRa): -0.02 PBM z-score against 500 random probes
NRC3_wobSeed109_DR4_G25A_o1 (dsDNA) DNA 1: GCCGTCCAAGGTCATAGGAGGTCAATGAAGACAGATGCGATTGACAGCGTAGAATGAAGG DNA 2: CCTTCATTCTACGCTGTCAATCGCATCTGTCTTCATTGACCTCCTATGACCTTGGACGGC | 5.65 PBM z-score against 500 random probes | 7.06 PBM z-score against 500 random probes | – | binding signal (PPARa:RXRa): 6.49 PBM z-score against 500 random probes; binding signal (RARb:RXRa): 5.71 PBM z-score against 500 random probes
NRC3_wobSeed109_DR4_G17T_o1 (dsDNA) DNA 1: GCCGTCCAAGGTCATATGAGGTCAGTGAAGACAGATGCGATTGACAGCGTAGAATGAAGG DNA 2: CCTTCATTCTACGCTGTCAATCGCATCTGTCTTCACTGACCTCATATGACCTTGGACGGC | 5.58 PBM z-score against 500 random probes | – | 7.97 PBM z-score against 500 random probes | –
NRC3_random_hg19_346_o1 (dsDNA) DNA 1: GCGCCTTCTGCTACAGGGCAAAGGTGGCACACAAAGGCGATTGACAGCGTAGAATGAAGG DNA 2: CCTTCATTCTACGCTGTCAATCGCCTTTGTGTGCCACCTTTGCCCTGTAGCAGAAGGCGC | 0.22 PBM z-score against 500 random probes | – | 0 PBM z-score against 500 random probes | –
NRC3_random_hg19_394_o1 (dsDNA) DNA 1: GCGAGATCGAGACCATCTTGGCTAACACGGTGAAACGCGATTGACAGCGTAGAATGAAGG DNA 2: CCTTCATTCTACGCTGTCAATCGCGTTTCACCGTGTTAGCCAAGATGGTCTCGATCTCGC | -0.09 PBM z-score against 500 random probes | – | – | binding signal (PXR:RXRa): -0.39 PBM z-score against 500 random probes
NRC3_random_hg19_176_o1 (dsDNA) DNA 1: GCCTGCCTGTGTTGGGACTTTGACTCCACATTTCCCGCGATTGACAGCGTAGAATGAAGG DNA 2: CCTTCATTCTACGCTGTCAATCGCGGGAAATGTGGAGTCAAAGTCCCAACACAGGCAGGC | -0.11 PBM z-score against 500 random probes | – | -0.07 PBM z-score against 500 random probes | binding signal (FXR:RXRa): -0.18 PBM z-score against 500 random probes; binding signal (PPARa:RXRa): 0 PBM z-score against 500 random probes
NRC3_random_hg19_90_o1 (dsDNA) DNA 1: GCTGAGTATTGTAGATTCATTGTTGAGATTCTAGATGCGATTGACAGCGTAGAATGAAGG DNA 2: CCTTCATTCTACGCTGTCAATCGCATCTAGAATCTCAACAATGAATCTACAATACTCAGC | -0.22 PBM z-score against 500 random probes | – | – | binding signal (PXR:RXRa): -0.1 PBM z-score against 500 random probes
NRC3_random_hg19_371_o1 (dsDNA) DNA 1: GCTTAAGGATGGACCATTGGCTAAAGCAATGTCAAAGCGATTGACAGCGTAGAATGAAGG DNA 2: CCTTCATTCTACGCTGTCAATCGCTTTGACATTGCTTTAGCCAATGGTCCATCCTTAAGC | -0.29 PBM z-score against 500 random probes | -0.56 PBM z-score against 500 random probes | – | –
NRC3_random_hg19_185_o1 (dsDNA) DNA 1: GCTAGTGAGTGAGTTCTCACAAGAAATGGTTGTTTAGCGATTGACAGCGTAGAATGAAGG DNA 2: CCTTCATTCTACGCTGTCAATCGCTAAACAACCATTTCTTGTGAGAACTCACTCACTAGC | -0.23 PBM z-score against 500 random probes | – | – | binding signal (PXR:RXRa): -0.01 PBM z-score against 500 random probes
NRC3_wobSeed114_DR4_G17T_o1 (dsDNA) DNA 1: GCAATACAGGGTCATCTTAGGCCAGAGTACGCACAGGCGATTGACAGCGTAGAATGAAGG DNA 2: CCTTCATTCTACGCTGTCAATCGCCTGTGCGTACTCTGGCCTAAGATGACCCTGTATTGC | 5.49 PBM z-score against 500 random probes | – | 7.35 PBM z-score against 500 random probes | –
NRC3_wobSeed116_DR4_A21G_o1 (dsDNA) DNA 1: GCAGAATGAGGTTACCAAAGGTCAGGGAAACGCTTGGCGATTGACAGCGTAGAATGAAGG DNA 2: CCTTCATTCTACGCTGTCAATCGCCAAGCGTTTCCCTGACCTTTGGTAACCTCATTCTGC | 5.21 PBM z-score against 500 random probes | 8.32 PBM z-score against 500 random probes | 9.08 PBM z-score against 500 random probes | –
NRC3_wobSeed101_DR4_T23C_o1 (dsDNA) DNA 1: GCCCTTACGGGTCACTCCAGGTCATAGCATCGGAGTGCGATTGACAGCGTAGAATGAAGG DNA 2: CCTTCATTCTACGCTGTCAATCGCACTCCGATGCTATGACCTGGAGTGACCCGTAAGGGC | 5.34 PBM z-score against 500 random probes | 7.16 PBM z-score against 500 random probes | 8.42 PBM z-score against 500 random probes | –
NRC3_random_hg19_439_o1 (dsDNA) DNA 1: GCTATGGTTTGGCTGTGTCTCCATTCAAATCTCAACGCGATTGACAGCGTAGAATGAAGG DNA 2: CCTTCATTCTACGCTGTCAATCGCGTTGAGATTTGAATGGAGACACAGCCAAACCATAGC | 0.36 PBM z-score against 500 random probes | – | – | binding signal (PXR:RXRa): 0.5 PBM z-score against 500 random probes
NRC3_random_hg19_412_o1 (dsDNA) DNA 1: GCACAACAGATGCTGGAGAGGATATGGAGATCCTTTGCGATTGACAGCGTAGAATGAAGG DNA 2: CCTTCATTCTACGCTGTCAATCGCAAAGGATCTCCATATCCTCTCCAGCATCTGTTGTGC | -0.82 PBM z-score against 500 random probes | -0.93 PBM z-score against 500 random probes | -0.73 PBM z-score against 500 random probes | binding signal (FXR:RXRa): -0.81 PBM z-score against 500 random probes
NRC3_wobSeed37_DR1_G22A_o1 (dsDNA) DNA 1: GCCGTCCAAGGTCAAAGGTCAATGAAGAGATGACGGGCGATTGACAGCGTAGAATGAAGG DNA 2: CCTTCATTCTACGCTGTCAATCGCCCGTCATCTCTTCATTGACCTTTGACCTTGGACGGC | 5.12 PBM z-score against 500 random probes | 7.29 PBM z-score against 500 random probes | – | binding signal (RXRa): 10.7 PBM z-score against 500 random probes; binding signal (RARg:RXRa): 9.11 PBM z-score against 500 random probes; binding signal (PPARa:RXRa): 7.52 PBM z-score against 500 random probes
